Laboratory results: the Human Domainome abundance scans (Beltran et al. 2025)
± gives the uncertainty stated by the source.

B1: Tumor protein p73, residues 487 to 549; numbered along this chain, O15350 (parent)
chain: YHADPSLVSFLTGLGCPNCIEYFTSQGLQSIYHLQNLTIEDLGALKIPEQYRMTIWRGLQDLK

Variants of: B1
Assay: abundance fitness (aPCA) (normalised: wild type 0, dead -1); higher = more abundant; growth selection in yeast, the domain comes from the species named
Conditions: Homo sapiens

Variant | abundance fitness
YHADPSLVSFLTGLGCPNCIEYFTSQGLQSIYHLQNLTIEDLGALKIPEQYRMTIWRGLHDLK | -0.246 ± 0.083
YHADPSLVSFLTGLGCPNCIEYFTSQGLQSIYHLQNLTIEDLGALKIPEQYRMTIWRGLIDLK | 0.034 ± 0.066
YHADPSLVSFLTGLGCPNCIEYFTSQGLQSIYHLQNLTIEDLGALKIPEQYRMTIWRGLKDLK | 0.117 ± 0.044
YHADPSLVSFLTGLGCPNCIEYFTSQGLQSIYHLQNLTIEDLGALKIPEQYRMTIWRGLLDLK | -0.013 ± 0.04
YHADPSLVSFLTGLGCPNCIEYFTSQGLQSIYHLQNLTIEDLGALKIPEQYRMTIWRGLMDLK | 0.031 ± 0.046
YHADPSLVSFLTGLGCPNCIEYFTSQGLQSIYHLQNLTIEDLGALKIPEQYRMTIWRGLNDLK | 0.089 ± 0.057
YHADPSLVSFLTGLGCPNCIEYFTSQGLQSIYHLQNLTIEDLGALKIPEQYRMTIWRGLPDLK | -0.388 ± 0.05
YHADPSLVSFLTGLGCPNCIEYFTSQGLQSIYHLQNLTIEDLGALKIPEQYRMTIWRGLSDLK | 0.018 ± 0.036
YHADPSLVSFLTGLGCPNCIEYFTSQGLQSIYHLQNLTIEDLGALKIPEQYRMTIWRGLTDLK | -0.017 ± 0.079
YHADPSLVSFLTGLGCPNCIEYFTSQGLQSIYHLQNLTIEDLGALKIPEQYRMTIWRGLVDLK | -0.041 ± 0.034
YHADPSLVSFLTGLGCPNCIEYFTSQGLQSIYHLQNLTIEDLGALKIPEQYRMTIWRGLWDLK | -0.068 ± 0.035
YHADPSLVSFLTGLGCPNCIEYFTSQGLQSIYHLQNLTIEDLGALKIPEQYRMTIWRGLYDLK | 0.06 ± 0.1
YHADPSLVSFLTGLGCPNCIEYFTSQGLQSIYHLQNLTIEDLGALKIPEQYRMTIWRGLQALK | -0.136 ± 0.039
YHADPSLVSFLTGLGCPNCIEYFTSQGLQSIYHLQNLTIEDLGALKIPEQYRMTIWRGLQCLK | -0.245 ± 0.11
YHADPSLVSFLTGLGCPNCIEYFTSQGLQSIYHLQNLTIEDLGALKIPEQYRMTIWRGLQELK | -0.068 ± 0.068
YHADPSLVSFLTGLGCPNCIEYFTSQGLQSIYHLQNLTIEDLGALKIPEQYRMTIWRGLQFLK | -0.572 ± 0.25
YHADPSLVSFLTGLGCPNCIEYFTSQGLQSIYHLQNLTIEDLGALKIPEQYRMTIWRGLQGLK | 0.035 ± 0.047
YHADPSLVSFLTGLGCPNCIEYFTSQGLQSIYHLQNLTIEDLGALKIPEQYRMTIWRGLQHLK | 0.039 ± 0.088
YHADPSLVSFLTGLGCPNCIEYFTSQGLQSIYHLQNLTIEDLGALKIPEQYRMTIWRGLQILK | 0.006 ± 0.046
YHADPSLVSFLTGLGCPNCIEYFTSQGLQSIYHLQNLTIEDLGALKIPEQYRMTIWRGLQKLK | -0.103 ± 0.047
YHADPSLVSFLTGLGCPNCIEYFTSQGLQSIYHLQNLTIEDLGALKIPEQYRMTIWRGLQLLK | -0.087 ± 0.041
YHADPSLVSFLTGLGCPNCIEYFTSQGLQSIYHLQNLTIEDLGALKIPEQYRMTIWRGLQMLK | -0.002 ± 0.053

Variant | abundance fitness
YHADPSLVSFLTGLGCPNCIEYFTSQGLQSIYHLQNLTIEDLGALKIPEQYRMTIWRGLQNLK | -0.046 ± 0.041
YHADPSLVSFLTGLGCPNCIEYFTSQGLQSIYHLQNLTIEDLGALKIPEQYRMTIWRGLQPLK | -0.092 ± 0.051
YHADPSLVSFLTGLGCPNCIEYFTSQGLQSIYHLQNLTIEDLGALKIPEQYRMTIWRGLQQLK | -0.126 ± 0.053
YHADPSLVSFLTGLGCPNCIEYFTSQGLQSIYHLQNLTIEDLGALKIPEQYRMTIWRGLQRLK | -0.066 ± 0.034
YHADPSLVSFLTGLGCPNCIEYFTSQGLQSIYHLQNLTIEDLGALKIPEQYRMTIWRGLQTLK | -0.003 ± 0.035
YHADPSLVSFLTGLGCPNCIEYFTSQGLQSIYHLQNLTIEDLGALKIPEQYRMTIWRGLQVLK | -0.104 ± 0.045
YHADPSLVSFLTGLGCPNCIEYFTSQGLQSIYHLQNLTIEDLGALKIPEQYRMTIWRGLQWLK | -0.127 ± 0.056
YHADPSLVSFLTGLGCPNCIEYFTSQGLQSIYHLQNLTIEDLGALKIPEQYRMTIWRGLQYLK | -0.157 ± 0.1
YHADPSLVSFLTGLGCPNCIEYFTSQGLQSIYHLQNLTIEDLGALKIPEQYRMTIWRGLQDAK | -0.104 ± 0.045
YHADPSLVSFLTGLGCPNCIEYFTSQGLQSIYHLQNLTIEDLGALKIPEQYRMTIWRGLQDCK | -0.117 ± 0.095
YHADPSLVSFLTGLGCPNCIEYFTSQGLQSIYHLQNLTIEDLGALKIPEQYRMTIWRGLQDEK | -0.007 ± 0.038
YHADPSLVSFLTGLGCPNCIEYFTSQGLQSIYHLQNLTIEDLGALKIPEQYRMTIWRGLQDFK | -0.059 ± 0.053
YHADPSLVSFLTGLGCPNCIEYFTSQGLQSIYHLQNLTIEDLGALKIPEQYRMTIWRGLQDIK | -0.044 ± 0.07
YHADPSLVSFLTGLGCPNCIEYFTSQGLQSIYHLQNLTIEDLGALKIPEQYRMTIWRGLQDKK | -0.257 ± 0.08
YHADPSLVSFLTGLGCPNCIEYFTSQGLQSIYHLQNLTIEDLGALKIPEQYRMTIWRGLQDNK | 0.058 ± 0.088
YHADPSLVSFLTGLGCPNCIEYFTSQGLQSIYHLQNLTIEDLGALKIPEQYRMTIWRGLQDPK | -0.032 ± 0.058
YHADPSLVSFLTGLGCPNCIEYFTSQGLQSIYHLQNLTIEDLGALKIPEQYRMTIWRGLQDSK | -0.083 ± 0.036
YHADPSLVSFLTGLGCPNCIEYFTSQGLQSIYHLQNLTIEDLGALKIPEQYRMTIWRGLQDVK | -0.007 ± 0.033
YHADPSLVSFLTGLGCPNCIEYFTSQGLQSIYHLQNLTIEDLGALKIPEQYRMTIWRGLQDWK | 0.071 ± 0.039
YHADPSLVSFLTGLGCPNCIEYFTSQGLQSIYHLQNLTIEDLGALKIPEQYRMTIWRGLQDYK | 0.008 ± 0.087
YHADPSLVSFLTGLGCPNCIEYFTSQGLQSIYHLQNLTIEDLGALKIPEQYRMTIWRGLQDLA | -0.082 ± 0.16
